The nature of this series: protein stability index of a GFP-peptide fusion (GPS, HEK-293T) (PSI 1-6); higher = more stable. To be noted: c terminus: a fixed tail appended.

± gives the standard deviation.
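Further: 24-mer peptide tiles fused after GFP, lentivirally expressed, FACS-sorted into six equal bins by GFP/DsRed ratio, decoded by Illumina sequencing, PSI is the read-weighted mean bin number.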

For the sequence EHYWEVRYEPDSKAFGVGVAYRSL [FSD1], the protein stability index was 2.06 ± 0.29 (treatment: DMSO) and 2.25 ± 0.33 (treatment: MLN4924 1 uM, 8 h).
Taken in the same sequence, the figures for EIIPINVNNNYEHRHTSHLGHAVL [SPRY1] were 2.34 ± 0.15 and 2.43 ± 0.3.
For the sequence EIKDLILPKISDPNFVKDLEEDLY [PI4K2A], the protein stability index was 3.16 ± 0.5 (treatment: DMSO) and 3.12 ± 0.38 (treatment: MLN4924 1 uM, 8 h).
Regarding EILLDFVYTETVHVTVENVQELLP [KLHL12], the protein stability index is, setting by setting: (treatment: DMSO) 2.31 ± 0.59; (treatment: MLN4924 1 uM, 8 h) 2.4 ± 1.3.
Taken in the same sequence, the figures for ELEKSGHGQAGQRQDPRPHGPQLP [ZBED2] were 5.01 ± 0.25 and 5.28 ± 0.055.
The matching figures for ELERCRQQAGLLVTGEKEEPSRSA [PPEF2]: 4.95 ± 0.27 and 5.11 ± 0.86.
As to ELFKELSINVMKQLIGSSNLFVMQ [GMCL1], the protein stability index (treatment: MLN4924 1 uM, 8 h) was 3.95 ± 0.43.
In the case of ELLTDKSCQSFISWTGDGWEFKLS [ETS1], the protein stability index by setting is: (treatment: DMSO) 2.24 ± 0.28; (treatment: MLN4924 1 uM, 8 h) 2.55 ± 0.37.
With EMHTSRDHSSQSEEEVVEGEKEVE [BNIP3L], the protein stability index was 5.682 ± 0.045 (treatment: DMSO) and 5.59 ± 0.16 (treatment: MLN4924 1 uM, 8 h).
The matching figures for EMSLAEELNHGRQGENQEHLVIAE [FATE1]: 5.44 ± 0.12 and 5.2 ± 0.24.
As to EMTTTDDLDFKHHNYKEMRQLMKV [CPXM2], the protein stability index amounted to 3.75 ± 0.099 (treatment: DMSO) and 3.53 ± 0.18 (treatment: MLN4924 1 uM, 8 h).
The matching figures for ENIAWVKSYNICFELEDSNEIFTQ [PDS5B]: 2.46 ± 0.61 and 2.53 ± 0.28.
Taken in the same sequence, the figures for ENVDEASAAPGHPQDGSYPRQADH [KCNA1] were 5.55 ± 0.25 and 5.47 ± 0.26.
For ENVSVEMLLRKFAESKGTGREKPG [FCHO1], the protein stability index reads like this: (treatment: DMSO) 3.9 ± 0.086; (treatment: MLN4924 1 uM, 8 h) 4.23 ± 0.26.
Taken in the same sequence, the figures for EPNRLETGEAGEELDLRLRLAQPS [RTN2] were 5.17 ± 0.13 and 5.28 ± 0.17.
Take EQEHAAIQDKLFQVAKREREAATK [CHCHD6]: the protein stability index reads like this: (treatment: DMSO) 5.38 ± 0.36; (treatment: MLN4924 1 uM, 8 h) 5.48 ± 0.16.
Take EQERRERREQAAAAPFPSPAPASP [TFE3]: the protein stability index was 5.52 ± 0.18 (treatment: DMSO) and 5.48 ± 0.14 (treatment: MLN4924 1 uM, 8 h).
For the sequence EQGAIPRLVQLLVRAHQDTQRRTS [CTNNB1], the protein stability index was 3.18 ± 0.19 (treatment: DMSO) and 3.26 ± 0.22 (treatment: MLN4924 1 uM, 8 h).
Taken in the same sequence, the figures for EQQRKLETYLQNHFAEEERSKYDY [TENT5C] were 4.35 ± 0.16 and 4.47 ± 0.099.
The matching figures for EQTFSPAKSLSFRKGELVTASKAI [ADD1]: 3.99 ± 0.17 and 4.14 ± 0.28.
The matching figures for EQVNFCESSNDFGPYEGGGPVAGL [ZBTB22]: 4.3 ± 0.16 and 4.32 ± 0.25.
For ERRGGLPPLPLHPGGDQGGPPVGP [WAS], the protein stability index turned out to be 4.95 ± 0.4 (treatment: DMSO) and 5.22 ± 0.2 (treatment: MLN4924 1 uM, 8 h).
The matching figures for ESETRKAAKRMRLEIYQSSQDEPI [NOL4L]: 4.58 ± 0.071 and 4.65 ± 0.24.
The matching figures for ETAIADAEQRGDNALKDARAKLDE [KRT71]: 5.57 ± 0.21 and 5.41 ± 0.54.
The matching figures for ETIEGAPPLWAASAAGHLKVVQSL [FEM1C]: 3.11 ± 0.2 and 3.04 ± 0.46.
On to EVENQFILRLPLEHACTVRNLARS [TAF7L], for which the protein stability index by setting is: (treatment: DMSO) 2.66 ± 0.12; (treatment: MLN4924 1 uM, 8 h) 2.51 ± 0.24.
Taken in the same sequence, the figures for EVGSMKIQSGAWVCYQYPGYRGYQ [CRYBA1] were 2.08 ± 0.24 and 2.32 ± 0.11.
The matching figures for EYMETGSLEKLLASEPLPWDLRFR [RIPK4]: 2.76 ± 0.3 and 3.27 ± 0.6.
Taken in the same sequence, the figures for EYQCQNLYQLEGNNQITCRNGQWS [CFHR2] were 3.09 ± 0.14 and 3.03 ± 0.21.
As to FAQPMMRPPFGAAAVPGTQLSPSP [SNAP91], the protein stability index was 3.43 ± 0.31 (treatment: DMSO) and 3.71 ± 0.35 (treatment: MLN4924 1 uM, 8 h).
Taken in the same sequence, the figures for FCASTRLPPTPLLLFPEEEATNGR [AUP1] were 3.03 ± 0.59 and 3.79 ± 0.31.
Taken in the same sequence, the figures for FDHLQNRLIATKNPEEIRGGGLLK [TENT5C] were 3.73 ± 0.26 and 4.09 ± 0.36.
As for FDKEWVAKQTKRMLDMKVNPIQGL [COX4I1], the protein stability index was 2.46 ± 0.44 (treatment: DMSO) and 2.78 ± 0.41 (treatment: MLN4924 1 uM, 8 h).
As for FDKLALRFHGRLLFLKDVLGDEIC [KCTD13], the protein stability index was 2.48 ± 0.41 (treatment: DMSO) and 2.34 ± 0.18 (treatment: MLN4924 1 uM, 8 h).
The matching figures for FDNPQVRFFLGDLCSRQDLYPALK [NSDHL]: 2.35 ± 0.29 and 2.25 ± 0.26.
FDSDWYTSRNLIGGADIIVIKYNV [RHOBTB3]: the protein stability index was found to be 2.73 ± 0.52 (treatment: DMSO) and 3.12 ± 0.4 (treatment: MLN4924 1 uM, 8 h).
Taken in the same sequence, the figures for FDVFSPKQDLVPGSPDDSHPKDGP [DLC1] were 5.43 ± 0.36 and 5.43 ± 0.33.
The matching figures for FFAFEHSEEYQQAQHKFLVAVESM [TCF25]: 3.59 ± 0.35 and 3.56 ± 0.4.
Taken in the same sequence, the figures for FFIRTSDSFDKFDFCEPSFVTGNC [PCMTD2] were 2.52 ± 0.33 and 2.42 ± 0.26.
Regarding FGRYLEHLEVKFMNPYNAVLTKKF [FBXO39], the protein stability index turned out to be 2.24 ± 0.45 (treatment: DMSO) and 2.04 ± 0.16 (treatment: MLN4924 1 uM, 8 h).
The matching figures for FKAEVDPLSDKGTTPLQLAIIRER [ASB7]: 3.82 ± 0.34 and 3.85 ± 0.25.
Regarding FKNRLVNIMPYESTRVCLQPIRGV [PTPRD], the protein stability index by setting is: (treatment: DMSO) 2.35 ± 0.35; (treatment: MLN4924 1 uM, 8 h) 2.33 ± 0.47.
Taken in the same sequence, the figures for FLFVLGGEDQWNPNGKHSTNFVSR [KLHL14] were 2.11 ± 0.15 and 2.27 ± 0.41.
The matching figures for FLLAFGLMIIVCIDQWKNKIWPEI [RETREG3]: 2.94 ± 0.4 and 3.09 ± 0.35.
The matching figures for FLLCARSLLRGFLLQNEFVGFMWR [MCOLN1]: 2.55 ± 0.34 and 2.39 ± 0.79.
FLMLAVSLTVPLLGAMMLLESPID [APMAP]: the protein stability index amounted to 3.52 ± 0.26 (treatment: DMSO) and 3.64 ± 0.37 (treatment: MLN4924 1 uM, 8 h).
The matching figures for FLPTALLCAYGFFASLRPSEPFLT [SLC19A2]: 3.25 ± 0.56 and 3.26 ± 0.59.
As to FLSENATVAAETRAVIAWMEKIPF [CPXM2], the protein stability index (treatment: DMSO) worked out at 2.04 ± 0.12 and the protein stability index (treatment: MLN4924 1 uM, 8 h) amounted to 2.28 ± 0.5.
Taken in the same sequence, the figures for FLSLHRAHLGEEAHKCLECGKCFS [ZNF263] were 3.06 ± 0.28 and 3.44 ± 0.37.
As to FLVVREPPRGAVERHSDLPPLNPT [SPNS1], the protein stability index reads like this: (treatment: DMSO) 2.85 ± 0.39; (treatment: MLN4924 1 uM, 8 h) 3.09 ± 0.34.
As to FPKKLAFAYLEDLHSEFDEQHGKK [SEC22B], the protein stability index is, setting by setting: (treatment: DMSO) 2.89 ± 0.28; (treatment: MLN4924 1 uM, 8 h) 3.26 ± 0.38.
The matching figures for FQFASIDVAGNLDYKALSYVITHG [MYL5]: 2.51 ± 0.47 and 2.29 ± 0.31.
Taken in the same sequence, the figures for FRFTYYTILDIFRFALRFIRPDPR [FAF2] were 2.56 ± 0.067 and 2.47 ± 0.33.

(Values after the supplement of paper PMC10567573.)
